Reference: article PMC9095961

Biological target: fluorescently labelled recombinant HAUSP (UniProt Q93009)
Assay: other fluorescence titration; BODIPY FL-labelled HAUSP titrated with unlabeled PE_PGRS38; 25°C, 30 mM Tris pH 7.4, 150 mM NaCl, 1 mM dithiothreitol; fitted with Grafit

UniProt Q93009, sequence (Q93009 whole entry): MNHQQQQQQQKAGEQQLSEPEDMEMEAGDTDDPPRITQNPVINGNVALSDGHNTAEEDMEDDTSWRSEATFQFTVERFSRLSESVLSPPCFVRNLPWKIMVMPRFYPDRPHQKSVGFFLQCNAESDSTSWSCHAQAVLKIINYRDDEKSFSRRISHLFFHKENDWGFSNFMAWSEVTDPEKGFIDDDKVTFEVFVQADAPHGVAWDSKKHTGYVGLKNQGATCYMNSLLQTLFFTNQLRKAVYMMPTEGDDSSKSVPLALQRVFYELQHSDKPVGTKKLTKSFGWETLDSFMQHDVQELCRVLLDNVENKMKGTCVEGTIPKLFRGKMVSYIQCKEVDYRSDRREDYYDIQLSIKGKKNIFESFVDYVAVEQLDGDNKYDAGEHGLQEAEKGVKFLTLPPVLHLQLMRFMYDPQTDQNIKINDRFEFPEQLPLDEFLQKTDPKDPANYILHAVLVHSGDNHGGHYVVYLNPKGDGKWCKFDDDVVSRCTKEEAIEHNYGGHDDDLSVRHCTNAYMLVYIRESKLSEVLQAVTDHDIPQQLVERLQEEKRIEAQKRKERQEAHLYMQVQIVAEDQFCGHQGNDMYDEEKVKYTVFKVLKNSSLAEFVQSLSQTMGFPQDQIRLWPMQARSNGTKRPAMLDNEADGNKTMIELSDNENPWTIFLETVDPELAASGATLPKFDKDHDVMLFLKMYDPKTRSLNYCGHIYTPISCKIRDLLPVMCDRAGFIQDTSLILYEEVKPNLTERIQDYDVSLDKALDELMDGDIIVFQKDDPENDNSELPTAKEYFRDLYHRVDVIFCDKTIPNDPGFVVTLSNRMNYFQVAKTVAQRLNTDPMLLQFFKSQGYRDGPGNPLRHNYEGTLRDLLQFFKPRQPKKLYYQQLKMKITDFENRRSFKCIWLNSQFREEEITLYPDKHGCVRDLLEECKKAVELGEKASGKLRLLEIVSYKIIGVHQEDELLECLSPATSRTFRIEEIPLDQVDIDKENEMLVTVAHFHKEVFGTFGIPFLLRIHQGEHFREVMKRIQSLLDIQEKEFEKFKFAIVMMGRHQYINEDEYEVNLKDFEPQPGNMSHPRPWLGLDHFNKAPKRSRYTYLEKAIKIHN

Substance: recombinant PE_PGRS38 (from UniProt L7N6A1 1-532) (natural protein)
- Kd: 143 nM
